Residue numbers refer to the chain shown, from its start.
What was measured:
AlNAC4 [1] = molecular target: T1, AlNAC4 (Aeluropus lagopoides, UniProt A0A220T1T2 1-312); experiment: EMSA; 80 ng probe, 300-2400 ng protein; binding increases with protein; 15 mM HEPES, 35 mM KCl, 1 mM EDTA pH 8.0, 1 mM DTT, 1 mM MgCl2, 6% glycerol, 4 ug glycogen, 25 ul, room temperature 20 min; 10% acrylamide 0.5x TBE gel, ethidium bromide stain; settings: protein: recombinant, tags: 6xHis (pET-28a; not thrombin-cleaved), chain copies: 2
T1 sequence: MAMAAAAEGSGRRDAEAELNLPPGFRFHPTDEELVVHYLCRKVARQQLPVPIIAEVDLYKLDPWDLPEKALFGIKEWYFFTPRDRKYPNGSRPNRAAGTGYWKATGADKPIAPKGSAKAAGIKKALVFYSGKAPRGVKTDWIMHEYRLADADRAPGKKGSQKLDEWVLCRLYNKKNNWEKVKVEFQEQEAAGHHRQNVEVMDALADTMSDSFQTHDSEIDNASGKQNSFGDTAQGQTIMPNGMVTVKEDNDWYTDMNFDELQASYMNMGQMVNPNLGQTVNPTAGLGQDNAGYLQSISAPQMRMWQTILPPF

AlNAC4 [2] = molecular target: T1, AlNAC4; experiment: EMSA; data not shown; 15 mM HEPES, 35 mM KCl, 1 mM EDTA pH 8.0, 1 mM DTT, 1 mM MgCl2, 6% glycerol, 4 ug glycogen, 25 ul, room temperature 20 min; 10% acrylamide 0.5x TBE gel, ethidium bromide stain; settings: protein: recombinant; tags: 6xHis (pET-28a; not thrombin-cleaved); chain copies: 2; blunt
AlNAC4 [3] = molecular target: T1, AlNAC4; experiment: EMSA; 15 mM HEPES, 35 mM KCl, 1 mM EDTA pH 8.0, 1 mM DTT, 1 mM MgCl2, 6% glycerol, 4 ug glycogen, 25 ul, room temperature 20 min; 10% acrylamide 0.5x TBE gel, ethidium bromide stain; settings: protein: recombinant; tags: 6xHis (pET-28a; not thrombin-cleaved); chain copies: 2; blunt

B1: NACBST (tandem NACRS, erd1 promoter) (dsDNA)
DNA 1: GGCCGCACACGCATGTGACACGCATGTGACACGCATGTGACACGCATGTGA
DNA 2: CTAGTCACATGCGTGTCACATGCGTGTCACATGCGTGTCACATGCGTGTGC
**Q.** Does B1 bind (AlNAC4 [1]; 5' overhangs 4 nt on both strands (GGCC, CTAG))?
**A.** binds

B2: NACBS (single NACRS with flanks, erd1 promoter) (dsDNA)
DNA 1: AGCTTGTGCAACTTGAGCTCTTCTTCTGTAACACGCATGTGTTGCGTTTGGTTTTTAATTTATTTGCCA
DNA 2: TGGCAAATAAATTAAAAACCAAACGCAACACATGCGTGTTACAGAAGAAGAGCTCAAGTTGCACAAGCT
**Q.** Does B2 bind (AlNAC4 [1]; blunt)?
**A.** binds

B3: mutated NACBS (CATGTG to AAAAAA, AACA to TTAA) (dsDNA)
DNA 1: B2 DNA 1 with A30T, A31T, C32A, C36A, T38A, G39A, T40A, G41A
DNA 2: B2 DNA 2 with C29T, A30T, C31T, A32T, G34T, G38T, T39A, T40A
**Q.** Does B3 bind (AlNAC4 [2])?
**A.** no binding

B4: pBSK+ MCS (dsDNA)
DNA 1: GGGGATCCACTAGTTCTAGAGCGGCCGCCA
DNA 2: TGGCGGCCGCTCTAGAACTAGTGGATCCCC
**Q.** Does B4 bind (AlNAC4 [3])?
**A.** no binding
